This note sets out measurements from patent US20210079092A1 (UNIVERSITY OF TOKYO, published 2021).

For experiment [1], the target named is T1, human CADM1 v9 fragment (human, UniProt Q9BY67-4 45-371).
T1 construct: Extracellular region of CADM1 v8/9 released from cells by protease cleavage; It was tested in, or purified from, the culture supernatant of SBC5 cells stably expressing CADM1 v8/9 (approximately 80 kDa, O-glycosylated region); also called v9 fragment of CADM1; CADM1 v8/9 fragment
T1 sequence: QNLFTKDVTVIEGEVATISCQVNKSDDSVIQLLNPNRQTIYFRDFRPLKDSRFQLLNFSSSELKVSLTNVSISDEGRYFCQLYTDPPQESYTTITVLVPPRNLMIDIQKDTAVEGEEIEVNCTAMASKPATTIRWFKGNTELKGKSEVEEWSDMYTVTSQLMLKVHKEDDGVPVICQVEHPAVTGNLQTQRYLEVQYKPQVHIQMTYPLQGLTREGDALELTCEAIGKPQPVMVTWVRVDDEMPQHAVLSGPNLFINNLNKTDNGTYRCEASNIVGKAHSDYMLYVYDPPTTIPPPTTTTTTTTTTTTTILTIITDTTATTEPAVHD
Briefly: sandwich ELISA on culture supernatant, capture E9935, detection HRP-labeled F1222. Here is the method: (§1) PBS-T (137 mM NaCl, 8.1 mM […], 2.68 mM KCl, 1.47 mM KH₂PO₄, and 0.05% Tween 20) was used for washing twice, and […] of 1%/BSA (Wako Pure Chemical Industries, Ltd.)/PBS-T was added. The plate was left at rest at room temperature for 1 hour for blocking. The plate was washed with PBS-T twice, and thereafter, a standard for a calibration curve, a culture supernatant, and serum or pleural effusion were added, followed by incubation at room temperature for 1 hour. The plate was washed with PBS-T four times, and […] of the detection antibody diluted in 1% BSA/PBS-T to a concentration of 100 ng/mL was added, followed by incubation at room temperature for 1 hour. The plate was washed with PBS-T six times, and […] of TMB Soluble Reagent (ScyTek Laboratories) was then added for color development. […] of TMB Stop Buffer (ScyTek Laboratories) was further added to terminate the reaction. Finally, using an Ensight plate reader (PerkinElmer), the wavelength at 450 nm was measured.
(§2) (A) The total amount of CADM1 fragment or other cells and (B) the amount of the CADM1 v9 fragment, secreted in the culture supernatant of SCLC were measured according to a sandwich ELISA method. As a capture antibody, the anti-CADM1 mouse monoclonal antibody E9935 was used. As detection antibodies, the anti-CADM1 antibody E9919 and the anti-CADM1 v8/9 antibody F1222, which were HRP-labeled, were used. […]
In general terms: ELISA stands for enzyme-linked immunosorbent assay.

The next experiment concerns the target T2, SEQ ID NO 28.
T2 construct: Short fragment obtained by dividing the 13-aa immunogen peptide; also called divided peptide consisting of 7 amino acids
T2 peptide: CDTTATT
In words: ELISA on coated peptide, HRP-labeled antibody. As to the method: (§3) The anti-CADM1 v9 antibodies F1222 and F1315 were previously HRP-labeled using Peroxidase Labeling Kit-NH₂ (DOJINDO LABORATORIES), and epitopes were narrowed down according to an ELISA method. Peptide synthesis was outsourced to Toray Research Center, Inc. The peptide was dissolved in 10% DMSO/PBS to prepare a peptide solution having a concentration of 1 mg/mL. […] of the peptide diluted in a carbonate buffer to a concentration of […] was added to Nunc MaxiSorp 96-well plate (Thermo Fisher Scientific) and was left at rest at 4° C. overnight for immobilization. The plate was washed with PBS-T twice, and […] of 1%/BSA/PBS-T was added. The plate was left at rest at room temperature for 1 hour for blocking. The plate was washed with PBS-T twice, and […] of the HRP-labeled antibody diluted in 1% BSA/PBS-T to a concentration of 100 ng/mL was added, followed by incubation at room temperature for 1 hour. The plate was washed with PBS-T four times, and […] of TMB Soluble Reagent (ScyTek Laboratories) was then added for color development. […] of TMB Stop Buffer (ScyTek Laboratories) was further added to terminate the reaction. Finally, using the Ensight plate reader (PerkinElmer), the wavelength at 450 nm was measured.
(§4) In order to narrow down the epitope of the anti-CADM1 v9 antibody, a peptide consisting of 13 amino acids in entire length (SEQ ID NO: 2) used as an immunogen, and peptides obtained by dividing the aforementioned peptide into short fragments (SEQ ID NOS: 28 to 30) were synthesized, and the reactivity of these peptides to the anti-CADM1 v9 antibody was studied using an ELISA method.

The target of another experiment is T3, SEQ ID NO 30.
T3 construct: Short fragment obtained by dividing the 13-aa immunogen peptide; also called divided peptide consisting of 7 amino acids
T3 peptide: TEPAVHD
Briefly: ELISA on coated peptide, HRP-labeled antibody. As to the method:
as §3, §4

In another experiment the target is T4, SEQ ID NO 29.
T4 construct: Short fragment obtained by dividing the 13-aa immunogen peptide; also called divided peptide consisting of 7 amino acids
T4 peptide: TATTEPA
In words: ELISA on coated peptide, HRP-labeled antibody. Here is the method:
as §3, §4

Experiment [2] deals with T5, peptide CDTTATTEPAVHD (entire-length peptide of 13 amino acids used as an immunogen).
T5 construct: Synthetic peptide with an added N-terminal cysteine; It was KLH-coupled only for immunization
T5 peptide: CDTTATTEPAVHD
In words: ELISA on coated peptide, HRP-labeled antibody. As to the method:
as §3, §4

Experiment [3] has as its target T1, human CADM1 v9 fragment. In words: sandwich ELISA on culture supernatant, E9935 as capture antibody, detection HRP-labeled F1222. As to the method: as §1, §2

Changes are numbered by the printed parent chain.

B1: anti-CADM1 v9 antibody F1222 (antibody, V domains shown)
VH: EVQLVESGGGLVQPKGSLKLSCAASGFTFNTYAMNWVRQAPGKGLEWVARIRSKSNYYTTYYADSVKDRFTISRDDSQSMLYLQMNNLKTEDTAMYYCIRQRHGNFYWGQGTLVTVSA
VL: DIVLTQSPASLAVSLGQRATISCKASQSVDYDGYSYMNWYQQKPGQPPKLLIYAASNLESGIPARFSGSGSGTDFTLNIHPVEEEDAATYYCQQSNEDPPTFGAGTKLELK
notes: Mouse monoclonal antibody from a hybridoma (Cadm1-/- Balb/c mice); It was HRP-labeled (Peroxidase Labeling Kit-NH2) in the sandwich and peptide ELISAs; also called anti-CADM1 v8/9 antibody F1222
Regarding B1, the binding result is recorded as “binds” in the experiment with human CADM1 v9 fragment [1]; “no binding (tested: 100 ng/mL antibody)” in the experiment with SEQ ID NO 28; “no binding (tested: 100 ng/mL antibody)” in the experiment with SEQ ID NO 30; “no binding (tested: 100 ng/mL antibody)” in the experiment with SEQ ID NO 29; “binds” in experiment [2].

B2: anti-CADM1 mouse monoclonal antibody E9935 (antibody, V domains shown)
VH: QVQLQQSGTELAKPGASVKMSCKASGYTFTHYWMHWVKQRPGQGLEWIGFINPGTGYTEYNQKFKDKATLTADKSSSTAYIQLSSLTSEDSAVYYCSRASYYSGSSHAWFGFWGQGTLVTVSA
VL: B1 VL with D30N, Y34D, S35N, N96Y, P100W, A104G, L110I
notes: Mouse monoclonal antibody from a hybridoma; It served as the capture antibody in the sandwich ELISA and, crosslinked to Protein A Sepharose, for purification; also called anti-CADM1 antibody E9935
As to B2, in the experiment with human CADM1 v9 fragment [3], the binding result is “binds”.
